According to article PMC11933327, “Asymmetric activation of dimeric ATM/Tel1 kinase” (Cell Discovery, 2025):

Key:
[1] = biological target: ATM/Tel1, basal state (Schizosaccharomyces pombe) (UniProt O74630); assay: cryo-EM structure; basal state; resolution improved from 7.8 Å to 4.3 Å with a new algorithm
active ATM/Tel1 dimer = assay: Mass photometry of GraFix-assembled ATM/Tel1-CHK2 complex; format: binding, Schizosaccharomyces pombe; conditions: over-saturated full-length CHK2, AMP-PNP, mass photometry 25 °C, 20 nM final protein
Procedure: to SDS- PAGE and analyzed by Western blot (WB) using pan- acetylated -Lysine (Rabbit monoclonal, Cat# 9441S, Cell Signaling Technology). and phospho-ATM/ATR substrate (pSQ/pTQ motif, Rabbit monoclonal, Cat# 6966, Cell Signaling Technology) antibodies.
Surface plasmon resonance
Interaction analysis between ATM/Tel1 in different states and CHK2 was performed at 20 °C using a Biacore 8K (GE Healthcare) by immobilizing CHK2 onto a CM5 sensor chip. A twofold dilution series of […] was injected at a flow rate of 30 µl min –1 in PBS running buffer. All conditions were tested for at least five different antibody concentrations, and the blank channel of the chip served as the negative control. After each cycle, the sensor was regenerated with 10 mM NaOH.
Data processing and kinetic analyses were performed using Biacore 8K Evaluation Software […]
To determine the stoichiometry and mass distribution between active ATM/Tel1 and its substrate CHK2, standard mass photometry landing assays were performed at 25 °C using a TwoMP instrument (Refeyn) mounted on an active anti-vibration platform. […] Bovine serum albumin standards (Beyotime) were measured on the same day to calibrate extracted particle contrast relative to mass. […]

[2] = biological target: ATM/Tel1, active state (endogenously activated by DNA damage) (Schizosaccharomyces pombe) (UniProt O74630); assay: cryo-EM structure; active wild-type ATM/Tel1 incubated with the CHK2 63-74 peptide and AMP-PNP in vitro; Structure 2, 3.6 Å
[3] = biological target: ATM/Tel1, active state (endogenously activated by DNA damage) (Schizosaccharomyces pombe) (UniProt O74630); assay: mass photometry; active ATM/Tel1 incubated with over-saturated full-length CHK2, complex fractionated by GraFix
[4] = biological target: ATM/Tel1, active state (endogenously activated by DNA damage) (Schizosaccharomyces pombe, UniProt O74630 1-2812, autophosphorylation and acetylation (sites not given)); assay: SPR
ATM/Tel1, active state (endogenously activated by DNA damage), sequence (O74630 whole entry): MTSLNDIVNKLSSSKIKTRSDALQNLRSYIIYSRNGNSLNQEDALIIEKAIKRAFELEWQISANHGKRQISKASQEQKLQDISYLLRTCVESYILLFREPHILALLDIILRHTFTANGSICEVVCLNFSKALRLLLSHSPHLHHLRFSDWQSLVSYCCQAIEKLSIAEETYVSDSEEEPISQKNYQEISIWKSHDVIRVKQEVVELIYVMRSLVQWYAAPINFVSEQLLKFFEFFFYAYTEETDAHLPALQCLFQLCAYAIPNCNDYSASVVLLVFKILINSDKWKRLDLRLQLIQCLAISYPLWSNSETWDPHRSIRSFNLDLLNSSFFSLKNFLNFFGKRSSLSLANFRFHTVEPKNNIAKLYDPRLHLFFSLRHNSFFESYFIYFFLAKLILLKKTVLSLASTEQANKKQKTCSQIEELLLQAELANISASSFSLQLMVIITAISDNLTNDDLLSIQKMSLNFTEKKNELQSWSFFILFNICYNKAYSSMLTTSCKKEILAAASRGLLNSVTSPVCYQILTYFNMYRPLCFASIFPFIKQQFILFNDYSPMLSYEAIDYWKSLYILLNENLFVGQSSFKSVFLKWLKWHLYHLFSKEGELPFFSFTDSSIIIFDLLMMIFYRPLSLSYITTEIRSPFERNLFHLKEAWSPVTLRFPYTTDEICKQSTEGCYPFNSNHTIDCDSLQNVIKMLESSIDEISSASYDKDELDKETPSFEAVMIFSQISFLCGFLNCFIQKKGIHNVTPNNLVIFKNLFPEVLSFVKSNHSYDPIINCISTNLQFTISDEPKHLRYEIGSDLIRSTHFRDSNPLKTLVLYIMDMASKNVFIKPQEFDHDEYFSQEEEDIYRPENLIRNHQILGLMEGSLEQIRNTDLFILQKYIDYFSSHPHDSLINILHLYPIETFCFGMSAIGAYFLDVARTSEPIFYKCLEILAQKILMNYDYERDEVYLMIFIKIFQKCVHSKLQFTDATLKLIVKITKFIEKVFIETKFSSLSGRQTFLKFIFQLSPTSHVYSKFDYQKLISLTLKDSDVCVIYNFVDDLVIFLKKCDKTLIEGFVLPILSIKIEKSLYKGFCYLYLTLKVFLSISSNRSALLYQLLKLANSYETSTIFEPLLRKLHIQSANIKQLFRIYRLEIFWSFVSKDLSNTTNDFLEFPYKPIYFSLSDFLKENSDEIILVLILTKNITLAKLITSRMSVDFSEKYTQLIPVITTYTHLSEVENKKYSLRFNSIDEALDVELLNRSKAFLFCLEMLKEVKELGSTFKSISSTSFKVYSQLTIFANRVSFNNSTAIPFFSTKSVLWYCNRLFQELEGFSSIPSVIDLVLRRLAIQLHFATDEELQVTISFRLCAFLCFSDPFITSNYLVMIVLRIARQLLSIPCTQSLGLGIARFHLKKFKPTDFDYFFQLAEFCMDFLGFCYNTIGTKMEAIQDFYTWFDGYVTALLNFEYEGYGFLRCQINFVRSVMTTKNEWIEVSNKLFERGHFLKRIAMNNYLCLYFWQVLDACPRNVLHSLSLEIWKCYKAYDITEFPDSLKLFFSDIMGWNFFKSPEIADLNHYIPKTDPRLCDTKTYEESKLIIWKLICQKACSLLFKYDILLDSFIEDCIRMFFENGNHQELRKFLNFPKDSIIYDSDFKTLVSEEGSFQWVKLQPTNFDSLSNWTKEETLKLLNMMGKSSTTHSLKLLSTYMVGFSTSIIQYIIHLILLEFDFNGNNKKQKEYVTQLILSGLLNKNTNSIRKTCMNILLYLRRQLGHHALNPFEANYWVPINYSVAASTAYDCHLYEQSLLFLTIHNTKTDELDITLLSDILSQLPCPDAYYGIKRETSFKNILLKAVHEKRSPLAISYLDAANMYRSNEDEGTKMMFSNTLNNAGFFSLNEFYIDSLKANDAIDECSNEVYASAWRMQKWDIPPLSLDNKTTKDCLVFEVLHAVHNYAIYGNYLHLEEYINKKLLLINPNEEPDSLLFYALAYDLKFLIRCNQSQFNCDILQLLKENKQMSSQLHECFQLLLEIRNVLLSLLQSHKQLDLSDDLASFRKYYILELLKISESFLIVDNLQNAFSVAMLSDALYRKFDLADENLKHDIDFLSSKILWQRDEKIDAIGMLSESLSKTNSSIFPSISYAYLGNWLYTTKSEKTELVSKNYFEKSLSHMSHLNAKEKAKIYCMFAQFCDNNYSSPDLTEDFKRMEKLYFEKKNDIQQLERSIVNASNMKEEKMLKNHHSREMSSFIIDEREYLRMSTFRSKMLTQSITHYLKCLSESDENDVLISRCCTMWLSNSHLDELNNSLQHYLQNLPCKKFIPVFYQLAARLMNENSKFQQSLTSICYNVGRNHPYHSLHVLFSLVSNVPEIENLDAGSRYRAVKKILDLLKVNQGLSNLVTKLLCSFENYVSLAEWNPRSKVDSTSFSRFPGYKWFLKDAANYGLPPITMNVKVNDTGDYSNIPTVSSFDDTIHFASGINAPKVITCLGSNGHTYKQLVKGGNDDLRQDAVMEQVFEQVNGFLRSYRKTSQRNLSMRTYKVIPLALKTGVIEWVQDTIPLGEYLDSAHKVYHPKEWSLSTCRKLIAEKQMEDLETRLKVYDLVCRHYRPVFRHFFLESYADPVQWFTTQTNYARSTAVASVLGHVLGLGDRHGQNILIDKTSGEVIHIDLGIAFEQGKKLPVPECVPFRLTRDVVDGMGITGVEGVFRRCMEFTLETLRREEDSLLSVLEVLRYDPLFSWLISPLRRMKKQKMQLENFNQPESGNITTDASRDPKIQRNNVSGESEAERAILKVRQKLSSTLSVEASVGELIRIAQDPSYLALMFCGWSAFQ

ATM/Tel1, basal state [5] = biological target: ATM/Tel1, basal state (Schizosaccharomyces pombe, UniProt O74630 1-2812); assay: SPR
ATM/Tel1, basal state [6] = biological target: T1, ATM/Tel1, basal state (Schizosaccharomyces pombe, UniProt O74630 1-2812); assay: SPR; CHK2 (full length or peptide) at varied concentrations on basal or active ATM/Tel1; conditions: both partners purified
T1 construct: ATM/Tel1 kinase of Schizosaccharomyces pombe, basal state, symmetric homodimer; also called basal ATM/Tel1; basal-state ATM/Tel1; source: purified

Q: How did the stoichiometry N [1] turn out when ATM/Tel1, basal state, O74630 1-2812 was run?
A: The stoichiometry N was 2.

Q: With “full-length CHK2: human full-length CHK2, C-terminal 6× His tag, expressed in E. coli BL21(DE3)” as the molecule, how does the “CHK2 molecules bound per ATM/Tel1 dimer” value (active ATM/Tel1 dimer) read?
A: The value was “only one CHK2 molecule is bound to an ATM/Tel1 dimer”.

Q: What does the source list for “ATM/Tel1, active state (endogenously activated by DNA damage), O74630 1-2812”?
A: stoichiometry N [2]: 2; stoichiometry N [3]: 2

B1: CHK2 substrate peptide (CHK2 63-74) (peptide, UniProt O96017 63-74, looked up)
peptide: LETVSTQELYSI
notes: CHK2 residues 63-74; also called CHK2 peptide
Q: B1 was tested. Which Kd [4] did it give?
A: The Kd was 2.37 µM.

Q: What about the Kd (ATM/Tel1, basal state [5]) of the same molecule?
A: Its Kd is 296 µM.

Q: And the “fold reduction of affinity against active ATM/Tel1” value (ATM/Tel1, basal state [6])?
A: Its value is over 120 fold.
